The text below walks through data of article PMC4983199 (Cell, 2016).

Where a chain is given by its changes, count along the chain named.

Experiment [1] deals with ZIKV E protein (recombinant, ectodomain, strain H/PF/2013) (Zika virus H/PF/2013, UniProt A0A024B7W1). The experiment in a line: ELISA.
In experiment [2] the target is T1, ZIKV E protein domain III (DIII), strain H/PF/2013 (Zika virus H/PF/2013).
T1 chain: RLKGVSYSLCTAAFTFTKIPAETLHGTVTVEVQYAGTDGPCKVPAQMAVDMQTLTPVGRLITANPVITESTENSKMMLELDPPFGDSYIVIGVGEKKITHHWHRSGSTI
The experiment in a line: cell-based or functional assay.

The target of experiment [3] is T1, ZIKV E protein domain III (DIII), …. The experiment is described as follows: BLI. A general note: Biolayer interferometry detects binding as a change in optical thickness at a sensor tip.
Experiment [4] addresses ZIKV subviral particles (SVPs, prM-E), strain H/PF/2013 (Zika virus H/PF/2013, UniProt A0A024B7W1). The experiment in a line: ELISA.

Sequence of ZIKV E protein (recombinant, ectodomain, strain H/PF/2013) (A0A024B7W1 whole entry, looked up, the tested form may be a part): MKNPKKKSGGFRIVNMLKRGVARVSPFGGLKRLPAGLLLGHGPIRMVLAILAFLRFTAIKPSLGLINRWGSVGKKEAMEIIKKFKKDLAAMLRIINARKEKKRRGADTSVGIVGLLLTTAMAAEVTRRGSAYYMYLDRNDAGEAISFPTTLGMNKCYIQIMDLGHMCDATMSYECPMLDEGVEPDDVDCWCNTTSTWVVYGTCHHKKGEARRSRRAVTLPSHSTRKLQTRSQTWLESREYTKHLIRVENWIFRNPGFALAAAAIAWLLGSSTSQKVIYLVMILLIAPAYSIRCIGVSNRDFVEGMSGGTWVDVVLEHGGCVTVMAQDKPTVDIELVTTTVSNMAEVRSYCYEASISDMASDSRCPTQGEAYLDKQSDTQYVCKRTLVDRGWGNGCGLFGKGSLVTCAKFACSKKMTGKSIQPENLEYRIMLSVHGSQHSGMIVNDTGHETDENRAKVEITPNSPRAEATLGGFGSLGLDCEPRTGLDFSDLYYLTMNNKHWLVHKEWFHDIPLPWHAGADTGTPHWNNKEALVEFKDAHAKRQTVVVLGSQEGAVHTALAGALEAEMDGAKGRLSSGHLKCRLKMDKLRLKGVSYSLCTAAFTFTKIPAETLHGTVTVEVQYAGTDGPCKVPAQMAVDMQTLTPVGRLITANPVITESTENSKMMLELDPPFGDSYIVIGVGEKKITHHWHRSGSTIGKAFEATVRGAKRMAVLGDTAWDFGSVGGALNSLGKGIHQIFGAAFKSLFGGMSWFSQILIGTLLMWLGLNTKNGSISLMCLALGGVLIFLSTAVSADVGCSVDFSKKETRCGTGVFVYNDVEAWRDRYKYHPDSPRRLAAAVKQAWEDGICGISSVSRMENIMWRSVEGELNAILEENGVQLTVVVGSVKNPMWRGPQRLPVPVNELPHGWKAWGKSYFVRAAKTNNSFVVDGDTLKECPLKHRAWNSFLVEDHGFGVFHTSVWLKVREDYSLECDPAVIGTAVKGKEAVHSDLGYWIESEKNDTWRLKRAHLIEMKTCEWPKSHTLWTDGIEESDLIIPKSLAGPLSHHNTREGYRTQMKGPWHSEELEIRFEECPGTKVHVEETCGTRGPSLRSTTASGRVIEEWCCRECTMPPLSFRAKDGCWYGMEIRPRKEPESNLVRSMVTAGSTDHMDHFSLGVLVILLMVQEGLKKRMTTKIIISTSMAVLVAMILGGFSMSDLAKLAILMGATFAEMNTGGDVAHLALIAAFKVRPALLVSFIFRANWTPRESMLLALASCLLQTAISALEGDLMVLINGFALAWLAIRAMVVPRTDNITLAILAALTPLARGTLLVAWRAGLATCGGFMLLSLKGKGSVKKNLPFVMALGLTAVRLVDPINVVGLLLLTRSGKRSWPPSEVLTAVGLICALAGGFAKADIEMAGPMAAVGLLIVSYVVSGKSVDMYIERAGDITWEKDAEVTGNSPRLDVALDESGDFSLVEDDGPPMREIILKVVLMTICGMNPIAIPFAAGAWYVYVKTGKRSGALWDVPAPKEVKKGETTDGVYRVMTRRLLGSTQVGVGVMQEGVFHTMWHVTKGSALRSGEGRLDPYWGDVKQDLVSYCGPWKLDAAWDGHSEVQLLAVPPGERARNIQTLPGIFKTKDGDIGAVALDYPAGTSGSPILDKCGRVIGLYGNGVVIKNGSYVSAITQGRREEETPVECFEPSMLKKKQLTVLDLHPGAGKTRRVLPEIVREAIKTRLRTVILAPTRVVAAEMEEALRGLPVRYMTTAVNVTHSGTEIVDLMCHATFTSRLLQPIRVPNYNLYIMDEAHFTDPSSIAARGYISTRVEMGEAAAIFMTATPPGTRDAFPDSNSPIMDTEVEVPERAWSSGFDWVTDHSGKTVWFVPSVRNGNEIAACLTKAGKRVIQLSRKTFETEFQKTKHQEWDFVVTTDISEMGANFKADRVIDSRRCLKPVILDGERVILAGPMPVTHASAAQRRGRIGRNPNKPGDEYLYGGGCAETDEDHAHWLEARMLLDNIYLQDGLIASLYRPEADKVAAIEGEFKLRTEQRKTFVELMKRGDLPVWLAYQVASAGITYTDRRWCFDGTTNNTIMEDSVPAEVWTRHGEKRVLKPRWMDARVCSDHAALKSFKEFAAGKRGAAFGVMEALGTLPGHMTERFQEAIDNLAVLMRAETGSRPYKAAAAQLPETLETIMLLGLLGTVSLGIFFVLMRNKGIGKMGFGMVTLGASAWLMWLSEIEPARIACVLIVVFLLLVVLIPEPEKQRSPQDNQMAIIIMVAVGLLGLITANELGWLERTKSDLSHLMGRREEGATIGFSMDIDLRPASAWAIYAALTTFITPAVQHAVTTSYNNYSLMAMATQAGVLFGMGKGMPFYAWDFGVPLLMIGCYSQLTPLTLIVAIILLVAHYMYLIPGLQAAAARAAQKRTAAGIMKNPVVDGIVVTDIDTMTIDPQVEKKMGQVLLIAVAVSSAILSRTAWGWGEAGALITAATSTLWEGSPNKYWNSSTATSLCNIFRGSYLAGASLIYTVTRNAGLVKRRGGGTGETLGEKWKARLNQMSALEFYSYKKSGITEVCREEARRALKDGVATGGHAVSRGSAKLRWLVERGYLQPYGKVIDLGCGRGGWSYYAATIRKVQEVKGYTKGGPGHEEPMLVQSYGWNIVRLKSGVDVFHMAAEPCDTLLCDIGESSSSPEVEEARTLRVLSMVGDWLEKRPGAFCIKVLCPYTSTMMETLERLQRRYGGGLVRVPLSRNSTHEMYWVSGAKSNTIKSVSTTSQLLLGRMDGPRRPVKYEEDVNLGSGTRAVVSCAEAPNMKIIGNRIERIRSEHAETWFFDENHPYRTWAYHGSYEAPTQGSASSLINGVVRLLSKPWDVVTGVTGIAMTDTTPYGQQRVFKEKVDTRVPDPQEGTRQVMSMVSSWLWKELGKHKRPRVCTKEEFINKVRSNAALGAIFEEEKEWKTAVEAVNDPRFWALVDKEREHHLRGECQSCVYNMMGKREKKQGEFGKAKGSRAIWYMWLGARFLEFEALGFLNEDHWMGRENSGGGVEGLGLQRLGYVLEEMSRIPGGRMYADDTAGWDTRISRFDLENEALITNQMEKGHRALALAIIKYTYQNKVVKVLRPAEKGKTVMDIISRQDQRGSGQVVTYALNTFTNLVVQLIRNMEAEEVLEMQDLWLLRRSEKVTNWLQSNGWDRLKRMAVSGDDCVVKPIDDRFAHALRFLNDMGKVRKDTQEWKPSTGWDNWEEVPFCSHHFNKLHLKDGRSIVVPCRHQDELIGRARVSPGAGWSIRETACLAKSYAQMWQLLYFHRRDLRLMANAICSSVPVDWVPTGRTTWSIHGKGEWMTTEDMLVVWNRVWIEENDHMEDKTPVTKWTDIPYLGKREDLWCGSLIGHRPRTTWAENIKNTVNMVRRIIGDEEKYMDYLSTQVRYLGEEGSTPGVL

B1: ZV-54 mouse monoclonal antibody (antibody, V domains shown)
VH: QVQLQQSGVGLARPGTSVKLSCKASGYSFTTYGISWVTQRPGQGLEWIGVIYPRSNNTYYNERFRGKATLTADKSSSSAYLELRGLTAEDSAVYFCARENYGSVYWGQGTTLTVSS
VL: DIVMTQSQKFMSTSVGDRVTITCKASQSVGTAVAWYHQKPGQSPKLLIYSASNRYTGVPDRFTGSGSGTDFTLTITYMQSEDLADYFCQQFSNYPFTFGGGTKLEIK
For the molecule B1, the binding result in experiment [1] was “binds”. For the same molecule, the “FRNT50, focus reduction neutralization of ZIKV H/PF/2013 on Vero cells” value (shortened to “FRNT50, focus reduction neutralization”) in experiment [2] turned out to be 87 ng/mL. Moreover, in experiment [3], the Kd came out at 7.9 ± 0.2 nM and the t1/2 came out at 33 min. In addition, the binding result in experiment [4] was “binds”.

B2: ZV-67 mouse monoclonal antibody (antibody, V domains shown)
VH: B1 VH with V2A, V9T, T16A, S28T, T31S, P41A, N56G, R63K, L81M
VL: B1 VL with T20S, S28N, H37Q, T76S, Y77N, N93S, F96Y
On to B2, for which the “FRNT50, focus reduction neutralization” value in experiment [2] came to 143 ng/mL. Moreover, in experiment [3], binding was characterised by a dissociation constant (Kd) of 8.8 ± 1.7 nM and the t1/2 amounted to 13.8 min.

B3: ZV-2 mouse monoclonal antibody (antibody, V domains shown)
VH: QVQLQESGAELMKPGASVKLSCKTSGYTFIGYWIEWLKQRPGHGLEWVGEIFPGSGRTKYNEKFKGRATFTADTSSNMAYMQLSSLTTEDSAIYYCARYYYGSYYALDYWGQGTSVTVSS
VL: DIVMTQSPSSLSVSAGEKVTLSCKSSQSLLHSGNQKNYLAWYQQKPGQAPKLLIYGASTRESGVPDRFTGSGSGTDFTLTISSVQAEDLAVYYCQNDHSYPLTFGAGTKLELK
In experiment [3], B3 had a Kd of 266 ± 42 nM and a t1/2 of 0.3 min.

B4: ZV-48 mouse monoclonal antibody (antibody, V domains shown)
VH: QVQLQQPGAELLKPGASVKLSCKASGYSFSNYWMHWVKQRPGQGPEWIGMIHPNSGNTKYNEKFKNKATLTVDKSSSMVYMQLSSLTSEDSAVFYCARLGNDMDYWGQGTSVTVSS
VL: DIVMSQSPSSLAVSVGEKITMSCKSSQSLLYSNNEKNYLAWYQQKPGQSPKLLIYWASARDSGVPDRFTGSGSGTDFTLTISSVKAEDLAVFYCQQYYSYPYTFGGGTKLEIK
Regarding B4, the binding result in experiment [1] is given as “binds”. In addition, the “FRNT50, focus reduction neutralization” value in experiment [2] worked out at 485 ng/mL. In experiment [3], binding was characterised by a dissociation constant (Kd) of 35 ± 0.8 nM and the t1/2 worked out at 3.2 min.

As usually defined, the Kd is the concentration at which binding is half-saturated. A higher Kd goes with weaker binding.
